The values below come from paper PMC6424611 (Journal of molecular biology, 2019).

Test in all cases: SPR
A general note: Surface plasmon resonance follows binding to a sensor surface in real time, without labels.

Assay [1] has as its target T1, MBP-fused PDZ domain of SNTA1 (human, UniProt Q13424 87-170).
T1 sequence (looked up): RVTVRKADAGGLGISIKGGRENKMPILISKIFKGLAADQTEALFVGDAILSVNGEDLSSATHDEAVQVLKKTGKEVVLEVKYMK

Assay [2] concerns the target T2, MBP-fused PDZ domain 1 of PDZRN3 (human, UniProt Q9UPQ7 249-339).
T2 sequence (looked up): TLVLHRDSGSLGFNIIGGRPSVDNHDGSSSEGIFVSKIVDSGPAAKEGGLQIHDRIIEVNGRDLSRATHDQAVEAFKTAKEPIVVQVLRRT

Assay [3] deals with T3, MBP-fused PDZ domain of ARHGEF12 (human, UniProt Q9NZN5 72-151).
T3 sequence (looked up): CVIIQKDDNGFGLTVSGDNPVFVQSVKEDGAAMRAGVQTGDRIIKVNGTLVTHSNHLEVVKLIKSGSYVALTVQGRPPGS

Assay [4] deals with T4, MBP-fused PDZ domain of MAST2 (human, UniProt Q6P0Q8 1104-1192).
T4 sequence (looked up): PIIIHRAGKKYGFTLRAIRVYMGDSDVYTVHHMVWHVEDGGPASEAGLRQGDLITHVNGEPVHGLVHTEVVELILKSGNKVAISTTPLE

The target of assay [5] is T5, MBP-fused PDZ domain 1 of NHERF3 (human, UniProt Q5T2W1 9-90).
T5 sequence (looked up): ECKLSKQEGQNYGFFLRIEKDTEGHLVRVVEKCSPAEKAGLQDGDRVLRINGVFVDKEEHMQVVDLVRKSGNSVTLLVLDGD

The target in assay [6] is MBP-fused second PDZ domain of MAGI1 (human, UniProt Q96QZ7 472-554).
Chain of MBP-fused second PDZ domain of MAGI1 (Q96QZ7 472-554): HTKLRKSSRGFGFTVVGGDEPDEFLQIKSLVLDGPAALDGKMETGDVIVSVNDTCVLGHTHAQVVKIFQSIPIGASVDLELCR
For assay [7], the target named is T6, MBP-fused PDZ domain of SYNJ2BP (human, UniProt P57105 13-100).
T6 sequence (looked up): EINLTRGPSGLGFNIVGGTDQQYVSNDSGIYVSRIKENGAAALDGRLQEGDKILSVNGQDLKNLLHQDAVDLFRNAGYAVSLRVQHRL

Assay [8] addresses MBP-fused PDZ domain 2 of MAGI2 (human, UniProt Q86UL8 426-510).
For assay [9], the target named is T7, MBP-fused PDZ domain 1 of PDZRN4 (human, UniProt Q6ZMN7 224-314).
T7 sequence (looked up): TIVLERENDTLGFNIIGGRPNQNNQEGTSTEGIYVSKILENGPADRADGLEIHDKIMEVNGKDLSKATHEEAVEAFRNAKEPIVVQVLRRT

Assay [10] deals with T8, MBP-fused PDZ domain of SNTB1 (human, UniProt Q13884 112-195).
T8 sequence (looked up): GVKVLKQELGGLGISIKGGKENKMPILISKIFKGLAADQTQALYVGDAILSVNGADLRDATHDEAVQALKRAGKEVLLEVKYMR

Where no end group is shown, it is not given here.

Chain of MBP-fused PDZ domain 2 of MAGI2 (Q86UL8 426-510): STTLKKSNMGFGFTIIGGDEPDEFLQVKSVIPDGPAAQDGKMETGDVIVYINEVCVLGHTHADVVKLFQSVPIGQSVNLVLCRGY

B1: biotinylated HPV16 E6 peptide (peptide)
chain: RSSRTRRETQL
modifications: not fully specified (N-terminus); also: biotinylated, position not given here
The Kd is the equilibrium constant for the complex coming apart. High values mean a looser complex, low ones a tighter complex. Take B1: the Kd stood at 101 ± 40 µM in assay [1]; 8.6 ± 1.6 µM in assay [2]; 10.9 ± 1.4 µM in assay [3]; 2.5 ± 0.2 µM in assay [4]; 23 ± 3 µM in assay [5]; 3.4 ± 0.8 µM in assay [6]. Moreover, the Kd was determined as 33 ± 4 µM in assay [7], 2.9 ± 0.14 µM in assay [8], 6 ± 1.5 µM in assay [9] and 27 ± 4 µM in [10].
